Measured values from PMC13070007 (2025).
Numbering of substitutions follows the chain as printed. Values belong to the binder of their own block, whether it stands above or below them.

Columns and labels:
Assay in all cases: SPR
28K30K32R = target: 28K30K32R
KFNM = target: KFNM
30K32R56G = target: 30K32R56G
30K32R113R = target: 30K32R113R

Kd (28K30K32R): 952 nM | Kd (KFNM): 173 nM
B1: TRBC1 protein (recombinant) (natural protein)
chain: DLNKVFPPEVAVFEPSEAEISHTQKATLVCLATGFFPDHVELSWWVNGKEVHSGVSTDPQPLKEQPALNDSRYCLSSRLRVSATFWQNPRNHFRCQVQFYGLSENDEWTQDRAKPVTQIVSAEAWGRADCGFTSVSYQQGVLSA

Kd (28K30K32R): 30 nM | Kd (30K32R56G): 46 nM | Kd (KFNM): 61 nM | Kd (30K32R113R): 41 nM
B2: TRBC2 protein (recombinant) (natural protein)
chain: B1 chain with N3K, K4N, E9K, F36Y, V135E
